Consider two substances from PMC6736723.

The target in this experiment is Scl1.41 on the surface of M41-type GAS cells (MGAS6183 wild type and Δscl1::scl1.41) (Streptococcus pyogenes (group A Streptococcus), M41-type strain MGAS6183).

In the case of “recombinant tenascin-C fibronectin type III repeats 6-8 (rTnFn6-8) (domain or fragment)”, the reduction in GAS (WT M41) adherence to CAF-derived matrices after 30 min pre-incubation of the cells with rTnFn6-8, against untreated WT is 40%.
The substance “recombinant tenascin-C fibronectin type III repeats 1-5 (rTnFn1-5) (domain or fragment)” displayed a reduction in GAS (WT M41) adherence to CAF-derived matrices after 30 min pre-incubation of the cells with rTnFn1-5, against untreated WT of 70%.
